Drawing on paper PMC10653821, this text covers stoichiometry N for one substance.

The assay concerns the target H. pylori-bullfrog hybrid ferritin nanoparticle (bullfrog (Rana catesbeiana) | Helicobacter pylori). Put plainly: SEC. In general terms: Size exclusion chromatography separates by hydrodynamic size, large species first.

With “H. pylori-bullfrog hybrid ferritin nanoparticle”, the stoichiometry N – broadly, a count of units in the complex or per binding partner – worked out at 24.
